In PMC4455164, “Facilitated Tau Degradation by USP14 Aptamers via Enhanced Proteasome Activity”:

B1: USP14-3 mutant (structured_RNA)
RNA: GGGUUCACUGCAGACUUGACGAAGCUUAAAAAAAAGGCUCGUUUGGCCUGCCGAAAAAAGGCCGGGAAAUGGAUCCACAUCUACGAAUUC
B2: USP14-2 mutant (structured_RNA)
RNA: GGGUUCACUGCAGACUUGACGAAGCUUCUGAAAAAAAGUUAGUUUCGCUGGUUUAAAAUCGGUGCGGAAUGGAUCCACAUCUACGAAUUC
B3: USP14-1 mutant (structured_RNA)
RNA: GGGUUCACUGCAGACUUGACGAAGCUUGCAGUGAUGUGCUUCUAAAAAACAACCUAAAAAAAUUGCCAAUGGAUCCACAUCUACGAAUUC

molecular target: USP14 (GST-USP14) (UniProt P54578 1-494); experiment: GST pull-down with RT-PCR; 2 pmol GST-protein on GST sepharose 4B resin + 20 pmol RNA; pull-down buffer not restated; SELEX binding buffer 30 mM Tris-HCl pH 7.5, 150 mM NaCl, 1.5 mM MgCl2, 2 mM DTT, 1% BSA, RT; conditions: protein: recombinant; tags: N-terminal GST (pGEX-2T)
Sequence (P54578 whole entry): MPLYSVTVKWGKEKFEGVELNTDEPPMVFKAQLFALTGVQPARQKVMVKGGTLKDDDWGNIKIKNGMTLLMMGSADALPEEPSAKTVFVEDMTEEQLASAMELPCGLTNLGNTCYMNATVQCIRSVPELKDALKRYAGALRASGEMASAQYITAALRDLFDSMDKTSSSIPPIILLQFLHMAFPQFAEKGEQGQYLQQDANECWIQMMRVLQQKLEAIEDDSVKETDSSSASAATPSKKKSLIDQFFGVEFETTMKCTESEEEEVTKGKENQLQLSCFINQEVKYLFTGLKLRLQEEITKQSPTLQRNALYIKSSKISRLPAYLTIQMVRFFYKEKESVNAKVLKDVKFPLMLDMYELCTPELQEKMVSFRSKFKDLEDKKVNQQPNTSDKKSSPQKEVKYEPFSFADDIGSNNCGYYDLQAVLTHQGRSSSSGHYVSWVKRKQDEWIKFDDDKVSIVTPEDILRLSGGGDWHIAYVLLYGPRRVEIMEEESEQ

Binding result, no binding:
B1
UUUGUCUAGCGCGUAGUGGGGAGAUGUUGUGAUACUGGGG (ssRNA) [control RNA aptamer]
B2
B3
